Test results from article PMC8893600 (Kidney international, 2021).

Target: p65 protein used for surface plasmon resonance (UniProt Q04206 1-551)
Experiment: SPR

p65 protein used for surface plasmon resonance, sequence (Q04206 whole entry): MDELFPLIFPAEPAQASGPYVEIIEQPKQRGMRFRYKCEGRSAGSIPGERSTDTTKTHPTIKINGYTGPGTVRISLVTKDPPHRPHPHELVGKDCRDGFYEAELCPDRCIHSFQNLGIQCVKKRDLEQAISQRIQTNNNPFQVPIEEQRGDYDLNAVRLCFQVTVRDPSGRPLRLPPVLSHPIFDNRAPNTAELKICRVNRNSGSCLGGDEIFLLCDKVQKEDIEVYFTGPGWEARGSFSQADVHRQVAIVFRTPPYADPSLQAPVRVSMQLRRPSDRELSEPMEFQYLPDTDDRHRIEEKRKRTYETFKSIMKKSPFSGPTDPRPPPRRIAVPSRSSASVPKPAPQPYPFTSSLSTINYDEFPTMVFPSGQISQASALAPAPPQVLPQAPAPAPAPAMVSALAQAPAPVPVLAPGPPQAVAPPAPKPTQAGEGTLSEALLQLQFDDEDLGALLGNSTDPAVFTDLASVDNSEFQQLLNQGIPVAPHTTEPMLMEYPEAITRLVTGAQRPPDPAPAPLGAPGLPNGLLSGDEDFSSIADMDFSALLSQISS

Kd: 13 nM
B1: ANXA1 protein used for surface plasmon resonance (natural protein, UniProt P04083 1-346, looked up)
chain: MAMVSEFLKQAWFIENEEQEYVQTVKSSKGGPGSAVSPYPTFNPSSDVAALHKAIMVKGVDEATIIDILTKRNNAQRQQIKAAYLQETGKPLDETLKKALTGHLEEVVLALLKTPAQFDADELRAAMKGLGTDEDTLIEILASRTNKEIRDINRVYREELKRDLAKDITSDTSGDFRNALLSLAKGDRSEDFGVNEDLADSDARALYEAGERRKGTDVNVFNTILTTRSYPQLRRVFQKYTKYSKHDMNKVLDLELKGDIEKCLTAIVKCATSKPAFFAEKLHQAMKGVGTRHKALIRIMVSRSEIDMNDIKAFYQKMYGISLCQAILDETKGDYEKILVALCGGN
